We go through one substance from paper PMC7188994.

The assay addresses SspA C314S mutant from Vibrio cyclitrophicus FF75 (Vibrio cyclitrophicus FF75). As to the kind of experiment: crystal structure; SspA C314S with cysteine substrate and PLP; hanging drop at 14°C, 1.8 M ammonium citrate pH 7.0; space group P6_(3)22, two molecules in each asymmetric unit; 1.80 Å.

“SspA C314S mutant from Vibrio cyclitrophicus FF75 (from UniProt A0AAN0N811 1-211) (enzyme)” yielded a stoichiometry N of 2.
